Columns and labels:
[1] = target: T1, ST2-Fc fusion protein (ectodomain of ST2, residues 19-321, and Fc from human IgG) (UniProt Q01638 19-321); assay: pull-down; 4 uM GST-IL-33 on Glutathione Sepharose 4B, then 4 uM ST2-Fc, then C2_2E12 (0.4, 4, 40, 400 uM), 30 min at 4 C each step; 50 mM Tris-HCl pH 7.5, 150 mM NaCl; immunoblot (anti-ST2, anti-GST, anti-His6), bands quantified with ImageJ; conditions: both partners purified
T1 construct: Suppressor of tumorigenicity 2 (ST2) / interleukin 1 receptor-like 1 (IL1RL1), ectodomain, residues 19-321; Synthesised gene in the pSF vector; also called sST2; IL1RL1; source: Expi293F, transfected, purified from supernatant (protein A agarose)
T1 sequence (looked up): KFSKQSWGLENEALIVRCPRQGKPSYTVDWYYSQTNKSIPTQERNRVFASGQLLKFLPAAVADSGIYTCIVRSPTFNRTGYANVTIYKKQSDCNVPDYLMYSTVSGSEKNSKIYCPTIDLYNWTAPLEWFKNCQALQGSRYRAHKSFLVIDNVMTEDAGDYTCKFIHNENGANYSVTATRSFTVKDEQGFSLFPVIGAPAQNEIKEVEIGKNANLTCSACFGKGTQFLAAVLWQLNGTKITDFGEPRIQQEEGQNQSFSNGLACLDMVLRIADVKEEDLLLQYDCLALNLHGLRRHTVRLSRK

[2] = target: T2, GST-IL-33 (mature form of interleukin 33, residues 112-270) (human, UniProt O95760); assay: ELISA; E. coli cell lysates containing overexpressed His6-tagged scFvs against GST-IL-33; the text says ELISA, the legend 'kinetic analysis'; the methods tell of lysates only for BLI (BLItz; lysate scFv on Ni-NTA biosensors, GST-IL-33 at 2, 1, 0.5 and 0.25 uM, Kd = koff/kon); conditions: one partner purified
T2 construct: Interleukin-33, human, mature form / IL-1-like cytokine domain, residues 112-270; Synthesised gene in the parallel GST-2 vector; also called GST-IL-33 WT; GST-IL-33_(112)-270; source: E. coli BL21 (DE3), purified (Glutathione Sepharose 4B); not shown: GST, N-terminal, kept

[3] = target: T2, GST-IL-33 (mature form of interleukin …); assay: pull-down; 4 uM GST-IL-33 on Glutathione Sepharose 4B, then 4 uM ST2-Fc, then C2_2E12 (0.4, 4, 40, 400 uM), 30 min at 4 C each step; 50 mM Tris-HCl pH 7.5, 150 mM NaCl; immunoblot (anti-ST2, anti-GST, anti-His6), bands quantified with ImageJ; conditions: both partners purified
[4] = target: T2, GST-IL-33 (mature form of interleukin …); assay: ELISA; GST-IL-33 coated on the plate; serial dilutions of purified scFv (about 8 ng/mL to 0.8 mg/mL), ambient temperature 1 h, PBST; anti-HA-HRP detection, OD450; repeated three times; conditions: both partners purified

B1: GST-IL-33 (mature form of interleukin 33, residues 112-270) (domain or fragment, human, UniProt O95760 112-270, looked up)
chain: SITGISPITEYLASLSTYNDQSITFALEDESYEIYVEDLKKDEKKDKVLLSYYESQHPSNESGDGVDGKMLMVTLSPTKDFWLHANNKEHSVELHKCEKPLPDQAFFVLHNMHSNCVSFECKTDPGVFIGVKDNHLALIKVDSSENLCTENILFKLSET
notes: Interleukin-33, human, mature form / IL-1-like cytokine domain, residues 112-270; Synthesised gene in the parallel GST-2 vector; also called GST-IL-33 WT; GST-IL-33_(112)-270; source: E. coli BL21 (DE3), purified (Glutathione Sepharose 4B); not shown: GST, N-terminal, kept
binding result [1]: binds

B2: C2_2E1 (scFv, V domains shown)
VH: EVQLLESGGGLVQPGGSLRLSCAASGFTFSSYYMSWVRQAPGRGLEWVSAISPGSSNKYYADSVKGRFTISRDNSKNTLYLQMNSLRAEDTAVYYCARMTSSFDYWGQGTLVTVSS
VL: QSVLTQPPSASGTPGQRVTISCSGSSSNIGNNDVSWYQQLPGTAPKLLIYSDSQRPSGVPDRFSGSKSGTSASLAISGLRSEDEADYYCGSWDYSLSAYVFGGGTKLTVL
notes: selected from a synthetic human scFv library by phage display; also called anti-IL-33 scFv clone C2_2E1; source: E. coli BL21 (DE3), in cell lysate; purified (Ni-NTA, SEC)
Kd [2]: 35 nM

B3: C2_2E12 (scFv, V domains shown)
VH: EVQLLESGGGLVQPGGSLRLSCAASGFTFSSYYMSWVRQAPGKGLEWVSAISPGSSNKYYADSVKGRFTISRDNSKNTLYLQMNSLRAEDTAVYYCARLTLSFDYWGQGTPVTVSS
VL: QSVLTQPPSASGTPGQRVTISCSGSSSNIGSNDVSWYQQLPGTAPKLLIYADSKRPSGVPDRFSGSKSGTSASLAISGLRSEDEADYYCASWDSSLSAYVFGGGTKLTVL
notes: selected from a synthetic human scFv library by phage display; Fab and IgG formats were made but no result is told for them; also called anti-IL-33 scFv clone C2_2E12; C2_2E12 antibody; source: E. coli BL21 (DE3), in cell lysate and purified (Ni-NTA, SEC); scFv also expressed in Expi293F, purified (Ni-NTA, SEC)
Kd [2]: 28 nM | IL-33:ST2 interaction left at 100-fold molar excess of C2_2E12 (ST2-Fc band relative to that with 0.4 uM C2_2E12) [3]: ~40% | Kd [4]: 38 nM

B4: C1_1E1 (scFv, V domains shown)
VH: EVQLLESGGGLVQPGGSLRLSCAASGFTFSSYYMSWVRQAPGKGLEWVSAISPGSSNKYYADSVKGRFTISRDNSKNTLYLQMNSLRAEDTAVYYCAKLTSAFDYWGQGTLVTVSS
VL: QSVLTQPPSASGTPGQRVTISCTGSSSNIGSNDVTWYQQLPGTAPKLLIYSDNKRPSGVPDRFSGSKSGTSASLAISGLRSEEEADYYCGAWDSSLSGYVFGGGTKLTVL
notes: selected from a synthetic human scFv library by phage display; also called anti-IL-33 scFv clone C1_1E1; source: E. coli BL21 (DE3), in cell lysate; purified (Ni-NTA, SEC)
Kd [2]: 48 nM

B5: C2_2A10 (scFv, V domains shown)
VH: EVQLLESGGGLVQPGGSLRLSCAASGFTFSSYYMSWVRQAPGKGLEWVSAISPGSSNKYYADSVKGRFTISRDNSKNTLYLQMNSLGAEDTAVYYCAKLLTGFDYWGQGTLVTVSS
VL: QSVLTQPPSASGTPGQRVTISCSGSSSNIGNNAVSWYQQLPGTAPKLLIYDDNHRPSGVPDRFSGSKSGTSASLAISGLRSEDEADYYCGTWDSSLSAYVFGGGTKLTVL
notes: selected from a synthetic human scFv library by phage display; also called anti-IL-33 scFv clone C2_2A10; source: E. coli BL21 (DE3), in cell lysate; purified (Ni-NTA, SEC)
Kd [2]: 57 nM

B6: C2_1D5 (scFv, V domains shown)
VH: EVQLLESGGGLVQPGGSLRLSCAASGFTFSSYYMSWVRQAPGKGLEWVSAISPGSSNKYYADSVKGRFTISRDNSKNTLYLQMNSLRAEDTAVYYCARLLSAFDYWGQGTLVTVSS
VL: QSVLTQPPSASGTPGQRVTISCSGSSSNIGSNDVSWYQQLPGTAPKLLIYSDSNRPSGVPDRFSGSKSGTSASLAISGLRSEDEADYYCGAWDSSLSGYVFGGGTKLTVL
notes: selected from a synthetic human scFv library by phage display; also called anti-IL-33 scFv clone C2_1D5; source: E. coli BL21 (DE3), in cell lysate; purified (Ni-NTA, SEC)
Kd [2]: 36 nM

B7: C2_2H5 (scFv, V domains shown)
VH: EVQLLESGGGLVQPGGSLRLSCAASGFTFSSYYMSWVRQAPGKGLEWVSAISPGSSNKYYADSVKGQFTISRDNSKNTLYLQMNSLRAEDTAVYYCAKLSQSFDYWGQGTLVTVSS
VL: QSVLTQPPSASGTPGQRVTISCTGSSSNIGNNGISWYQQLPGTAPKLLIYDNSHRPSGVPDRFSGSKSGTSASLAISGLRSEDETDYYCASWDSSLSGYVFGGGTKLTVL
notes: selected from a synthetic human scFv library by phage display; also called anti-IL-33 scFv clone C2_2H5; source: E. coli BL21 (DE3), in cell lysate; purified (Ni-NTA, SEC)
Kd [2]: 31 nM

Reference: PMC7554688, “Blocking of the IL-33/ST2 Signaling Axis by a Single-Chain Antibody Variable Fragment (scFv) Specific to IL-33 with a Defined Epitope” (International Journal of Molecular Sciences, 2020)
